Measured values reported in patent publication US20090215197A1, “TARGET SUBSTANCE CAPTURING MOLECULE” (CANON KABUSHIKI KAISHA, published 2009).

Columns and labels:
[1] = molecular target: T1, Maltose-binding protein (MBP) (Escherichia coli (strain K12), UniProt P0AEX9 = MBP); test: SPR (BIAcore), MBP immobilized on CM5 chip, 0.1% Tween 20/PBS, 25 C
[2] = molecular target: T1, Maltose-binding protein (MBP); test: SPR (BIAcore), same manner as in Example 10 (MBP immobilized on CM5 chip)
Protocol: In comparison with the single stranded MBP-bound VHH/MBP-bound ankyrine fused protein obtained in Example 4, and the MBP-bound VHH-Jun/MBP-bound ankyrine Fos hetero dimer obtained in Example 9, the MBP bound antibody domain (VHH), which is a single domain protein bound to MBP and represented by Sequence ID No. 2 and the MBP-bound ankyrine represented by Sequence ID No. 6 were evaluated by SPR (manufactured by BIAcore). As a substrate, CM5 (manufactured by BIAcore) is used. MBP is immobilized onto the substrate in accordance with the method recommended by the manufacturer. The MBP immobilized chip thus obtained is subjected to evaluation under the conditions: running Buffer: 0.1% Tween 20/PBS, flow rate: 20 μL/min, and temperature: 25° C. […] The capturing molecule according to the present invention has a high binding ability, compared to the capturing molecule known in the art binding to a target substance at a single epitope (or single site).
MBP-bound VHH-Jun fusion protein and MBP-bound peptide-Fos fusion protein hetero dimer obtained in Example 14 was evaluated for SPR (manufactured by BIAcore) in the same manner as in Example 10.

B1: MBP-bound VHH-Jun/MBP-bound ankyrine Fos hetero dimer (other)
chain 1: PWQVQLQESGPGLLKPSETLFLTCTVSGFSISGGYYWGWFRQPPGKEREWIGSVYHSGSTYYNKSLESRVTISIHTSESQISLKLNSVTAADTAVYSCARYRTAHPLWGQGTMVTVSSEFGGGGSGGGGSGGGGSRIARLEEKVKTLKAQNSELASTANMLREQVAQLKQKVMNYFGC
chain 2: PWNAADNTGTTPLHLAAYSGHLEIVEVLLKHGADVDASDVFGYTPLHLAAYWGHLEIVEVLLKNGADVNAMDSDGMTPLHLAAKWGYLEIVEVLLKHGADVNAQDKFGKTAFDISIDNGNEDLAEILQEFGGGGSGGGGSGGGGSLTDTLQAETDQLEDKKSALQC
Question: With B1 as the binder, how does the Kd [1] read?
Answer: The Kd was 1 nM.

B2: MBP-bound VHH-Jun fusion protein and MBP-bound peptide-Fos fusion protein hetero dimer (other)
chain 1: B1 chain 1
chain 2: TPIHRRRQFNTGEFGGGGSGGGGSGGGGSLTDTLQAETDQLEDKKSALQTEIANLLKEKEKLEFILAAYRLC
Question: How did the Kd [2] turn out when B2 was run?
Answer: Its Kd is 10 nM.

B3: MBP bound antibody domain (VHH) (VHH)
VHH: QVQLQESGPGLLKPSETLFLTCTVSGFSISGGYYWGWFRQPPGKEREWIGSVYHSGSTYYNKSLESRVTISIHTSESQISLKLNSVTAADTAVYSCARYRTAHPLWGQGTMVTVSS
Question: B3 was tested. Which Kd [1] did it give?
Answer: Its Kd is 1000 nM.
